This is an account of results in patent US20220040319A1 (Regeneron, published 2022).

For experiment [1], the target named is T1, human MET on cells (human, UniProt P08581 25-1390). As to the kind of experiment: cell-based or functional assay.
Experiment [2] concerns the target T1, human MET on cells. As to the kind of experiment: cell-based or functional assay. This is another data set of the same source.
Experiment [3] has as its target T2, hMET.mFc (dimeric human MET) (human, UniProt P08581 27-307).
T2 construct: soluble dimeric MET protein
As to the kind of experiment: SPR 37C, antibody captured. On the procedure: (§1) The anti-Met antibodies tested in this example were bivalent monospecific binders of MET.
(§2) Kinetic association (kₐ) and dissociation (kd) rate constants were determined by fitting the real-time sensorgrams to a 1:1 binding model using Scrubber 2.0c curve fitting software. Binding dissociation equilibrium constant (KD) and dissociative half-life (t1/2) were calculated from the kinetic rate constants as: […]

Experiment [4] has as its target T3, hMet.mmh (human MET extracellular domain with C-terminal myc-myc-hexahistidine tag) (human, UniProt P08581 309-914; P08581 27-307).
T3 construct: soluble monomeric MET; also called monomeric human MET
As to the kind of experiment: SPR 37C, antibody captured. On the procedure: as §1, §2

T2 sequence (P08581 other isoform, or with tags, fused parts or gaps limits assumed, chain 1 of 2): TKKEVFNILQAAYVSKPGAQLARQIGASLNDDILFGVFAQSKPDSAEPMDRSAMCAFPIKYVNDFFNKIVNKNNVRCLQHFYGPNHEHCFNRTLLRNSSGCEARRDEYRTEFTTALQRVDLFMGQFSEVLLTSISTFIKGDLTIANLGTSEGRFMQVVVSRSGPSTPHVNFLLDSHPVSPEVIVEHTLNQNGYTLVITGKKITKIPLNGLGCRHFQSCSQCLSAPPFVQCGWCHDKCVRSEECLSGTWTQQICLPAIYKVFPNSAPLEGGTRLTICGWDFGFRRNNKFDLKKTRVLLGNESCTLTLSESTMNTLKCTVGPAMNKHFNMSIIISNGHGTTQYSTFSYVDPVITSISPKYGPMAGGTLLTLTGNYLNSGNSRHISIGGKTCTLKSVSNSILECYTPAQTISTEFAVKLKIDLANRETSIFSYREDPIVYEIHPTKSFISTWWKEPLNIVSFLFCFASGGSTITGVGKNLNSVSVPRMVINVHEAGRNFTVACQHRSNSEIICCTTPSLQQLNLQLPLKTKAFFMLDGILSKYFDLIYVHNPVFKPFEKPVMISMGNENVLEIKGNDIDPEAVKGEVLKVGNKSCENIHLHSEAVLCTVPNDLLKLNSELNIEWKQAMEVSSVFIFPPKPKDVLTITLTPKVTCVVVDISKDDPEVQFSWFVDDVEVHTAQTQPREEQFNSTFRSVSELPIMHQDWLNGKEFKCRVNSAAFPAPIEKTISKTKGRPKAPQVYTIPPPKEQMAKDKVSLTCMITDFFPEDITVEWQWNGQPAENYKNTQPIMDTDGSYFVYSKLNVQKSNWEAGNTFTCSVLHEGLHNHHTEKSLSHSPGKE
T2 sequence (P08581 27-307 limits assumed, chain 2 of 2): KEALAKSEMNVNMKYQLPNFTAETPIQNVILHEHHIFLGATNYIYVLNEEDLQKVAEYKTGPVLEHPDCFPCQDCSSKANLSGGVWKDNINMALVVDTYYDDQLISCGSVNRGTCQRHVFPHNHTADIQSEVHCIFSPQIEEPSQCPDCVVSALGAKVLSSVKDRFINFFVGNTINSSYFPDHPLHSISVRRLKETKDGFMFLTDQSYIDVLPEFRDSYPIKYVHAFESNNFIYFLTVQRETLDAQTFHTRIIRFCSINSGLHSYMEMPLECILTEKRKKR
T3 sequence (P08581 other isoform, or with tags, fused parts or gaps limits assumed, chain 1 of 2): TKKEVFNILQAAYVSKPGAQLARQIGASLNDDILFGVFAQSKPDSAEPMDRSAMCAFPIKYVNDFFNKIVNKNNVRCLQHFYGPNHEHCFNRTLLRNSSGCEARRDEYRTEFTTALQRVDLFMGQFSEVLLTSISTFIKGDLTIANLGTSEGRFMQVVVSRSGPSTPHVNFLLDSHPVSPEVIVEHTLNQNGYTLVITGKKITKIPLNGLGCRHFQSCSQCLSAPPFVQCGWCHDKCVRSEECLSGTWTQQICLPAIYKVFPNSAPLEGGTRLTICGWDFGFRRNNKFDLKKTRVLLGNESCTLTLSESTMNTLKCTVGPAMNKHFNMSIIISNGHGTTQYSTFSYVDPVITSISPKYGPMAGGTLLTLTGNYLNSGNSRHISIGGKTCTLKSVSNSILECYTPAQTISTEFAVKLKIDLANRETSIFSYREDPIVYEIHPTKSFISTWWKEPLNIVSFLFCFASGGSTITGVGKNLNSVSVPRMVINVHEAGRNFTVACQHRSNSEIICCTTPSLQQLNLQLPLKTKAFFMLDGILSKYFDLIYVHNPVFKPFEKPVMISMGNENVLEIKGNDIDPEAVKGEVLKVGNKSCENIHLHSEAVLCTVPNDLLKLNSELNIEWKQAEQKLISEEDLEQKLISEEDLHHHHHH
T3 sequence (P08581 27-307 limits assumed, chain 2 of 2): as the sequence (P08581 27-307 limits assumed, chain 2 of 2) above
T1 sequence (P08581 25-1390 limits assumed, form in doubt): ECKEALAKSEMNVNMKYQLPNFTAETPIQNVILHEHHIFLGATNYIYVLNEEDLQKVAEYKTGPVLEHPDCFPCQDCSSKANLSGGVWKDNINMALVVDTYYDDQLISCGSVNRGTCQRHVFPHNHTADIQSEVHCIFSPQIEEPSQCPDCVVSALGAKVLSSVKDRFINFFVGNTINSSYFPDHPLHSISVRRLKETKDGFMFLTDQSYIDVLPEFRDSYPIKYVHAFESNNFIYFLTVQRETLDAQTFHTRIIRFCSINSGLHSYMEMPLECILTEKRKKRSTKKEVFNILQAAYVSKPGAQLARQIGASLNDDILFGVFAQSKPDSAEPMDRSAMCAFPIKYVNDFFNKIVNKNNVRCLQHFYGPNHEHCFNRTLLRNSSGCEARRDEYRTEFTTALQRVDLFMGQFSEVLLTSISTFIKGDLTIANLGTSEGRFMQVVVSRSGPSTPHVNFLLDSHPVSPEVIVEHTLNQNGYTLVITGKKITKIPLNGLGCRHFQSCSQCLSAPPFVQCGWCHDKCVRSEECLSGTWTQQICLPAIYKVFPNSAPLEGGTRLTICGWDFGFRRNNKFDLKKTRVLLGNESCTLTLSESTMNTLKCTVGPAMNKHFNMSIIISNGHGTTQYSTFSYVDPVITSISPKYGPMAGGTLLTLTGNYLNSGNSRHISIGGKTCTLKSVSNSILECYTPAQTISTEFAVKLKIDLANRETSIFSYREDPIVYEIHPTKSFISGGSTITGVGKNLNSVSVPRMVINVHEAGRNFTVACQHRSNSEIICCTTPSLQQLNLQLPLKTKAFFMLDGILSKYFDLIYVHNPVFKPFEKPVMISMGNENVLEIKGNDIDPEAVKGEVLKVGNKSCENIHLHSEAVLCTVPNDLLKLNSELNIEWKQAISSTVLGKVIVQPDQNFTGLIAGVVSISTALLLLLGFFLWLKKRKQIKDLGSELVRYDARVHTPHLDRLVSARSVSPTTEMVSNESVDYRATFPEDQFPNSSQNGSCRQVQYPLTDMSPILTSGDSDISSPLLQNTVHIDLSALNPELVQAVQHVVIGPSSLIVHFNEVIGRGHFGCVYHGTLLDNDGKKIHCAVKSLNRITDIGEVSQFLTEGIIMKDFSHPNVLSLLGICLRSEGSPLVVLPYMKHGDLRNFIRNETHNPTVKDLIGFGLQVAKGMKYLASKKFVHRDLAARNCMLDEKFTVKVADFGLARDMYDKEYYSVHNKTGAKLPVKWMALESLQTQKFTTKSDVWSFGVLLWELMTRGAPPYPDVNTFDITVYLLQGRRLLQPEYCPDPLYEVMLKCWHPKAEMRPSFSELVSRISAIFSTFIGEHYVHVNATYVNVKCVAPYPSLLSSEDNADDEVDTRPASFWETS

B1: H4H13302P2 (antibody, human IgG4, V domains shown)
VH: QVQLVESGGGVVQPGRSLRLSCAASGFTFSNFGMHWVRQAPGKGLEWVAGIWFDGSNKNYIDSVKGRFTISRDNSKNTLYLQMNSLRAEDTAVYYCAREGYDSGTDYIPYDIFDIWGQGTMVTVSS
VL: not shown
With B1, in the experiment with human MET on cells [1], the “% Growth Inhibition, SNU5 cells” value is 40% and the “IC50, SNU5 growth” value amounted to 110 pM. Also, in the experiment with human MET on cells [2], the “% Inhibition, HEK293/SRE-Luc Blocking Activity (HGF, 1 h mAb pre-bind)” value worked out at 45%; the “Fold Response, Ligand (HGF)-Independent HEK293/SRE-Luc Activation” value was determined as 1.8 fold; the “IC50, HEK293/SRE-Luc Blocking Activity (HGF, 1 h mAb pre-bind)” value (“IC50, HEK293/SRE-Luc Blocking Activity” for short) was found to be 1.6 nM.

B2: H4H13302P2 (antibody, human IgG4, V domains shown)
VH: QVQLVESGGGVVQPGRSLRLSCAASGFTFSNFGMHWVRQAPGKGLEWVAGIWFDGSNKNYIDSVKGRFTISRDNSKNTLYLQMNSLRAEDTAVYYCAREGYDSGTDYIPYDIFDIWGQGTMVTVSS
VL: not shown
notes: human IgG4 Fc (H4H), bivalent monospecific
In general, Kd refers to the free concentration of one partner at which half of the binding sites on the other are occupied at equilibrium, for simple one-to-one binding. A low value points to tighter binding. The term koff denotes the rate constant with which the complex falls apart. A lower koff goes with slow dissociation. One may read the kon as the rate constant with which the complex forms. A high value points to faster complex formation. B2: in experiment [3], the dissociation constant (Kd) is 2.33 nM, the T½ came to 19.8 min, the koff came out at 0.000584 s⁻¹ and the kon amounted to 251000 M⁻¹ s⁻¹. In experiment [4], this molecule returned a dissociation constant Kd of 47 nM, a T½ of 4.7 min, a koff of 0.00246 s⁻¹ and a kon of 52400 M⁻¹ s⁻¹.

B3: H4H13299P2 (antibody, human IgG4, V domains shown)
VH: EVQLVESGGGLVQPGGSLRLSCAASGFIFSNYEMNWVRQAPGKGLEWISYITSSGNMKYYADSVKGRFTISRDNDKNSLYLQMSSLRVEDTAVYYCVRGGRFLEWLTYYVMVVWGQGTTVTVSS
VL: not shown
notes: as for B2
Turning to B3, in experiment [3], binding was put at a Kd of 0.878 nM, the T½ amounted to 36.8 min, the koff was determined as 0.000314 s⁻¹ and the association rate constant (kon) stood at 357000 M⁻¹ s⁻¹. In experiment [4], the equilibrium dissociation constant (Kd) is 8.57 nM, the T½ turned out to be 14.8 min, the koff amounted to 0.00078 s⁻¹ and the kon came to 91000 M⁻¹ s⁻¹.

B4: H4H13301P2 (antibody, human IgG4, V domains shown)
VH: QVQLVESGGGVVQPGTSLRLSCVASGFTFRNFGMHWVRQAPGKGLEWVANIWFDGSNENYVESIQGRFTISRDNSKNTLNLQMNSLRAEDSAVYYCVREGILGTTNPYDAFDVWGQGTMVTVSS
VL: not shown
Consider B4, for which, in the experiment with human MET on cells [1], the “% Growth Inhibition, SNU5 cells” value is 33% and the “IC50, SNU5 growth” value is 74 pM. Also, in the experiment with human MET on cells [2], the “% Inhibition, HEK293/SRE-Luc Blocking Activity (HGF, 1 h mAb pre-bind)” value came out at 40%; the “Fold Response, Ligand (HGF)-Independent HEK293/SRE-Luc Activation” value was found to be 1.6 fold; the “IC50, HEK293/SRE-Luc Blocking Activity” value was 1.5 nM.

B5: H1H13301P2 (antibody, IgG1, V domains shown)
VH: QVQLVESGGGVVQPGTSLRLSCVASGFTFRNFGMHWVRQAPGKGLEWVANIWFDGSNENYVESIQGRFTISRDNSKNTLNLQMNSLRAEDSAVYYCVREGILGTTNPYDAFDVWGQGTMVTVSS
VL: not shown
Regarding B5, in the experiment with human MET on cells [1], the “% Growth Inhibition, SNU5 cells” value was 33% and the “IC50, SNU5 growth” value amounted to 100 pM. For the same molecule, in the experiment with human MET on cells [2], the “% Inhibition, HEK293/SRE-Luc Blocking Activity (HGF, 1 h mAb pre-bind)” value came out at 42%; the “Fold Response, Ligand (HGF)-Independent HEK293/SRE-Luc Activation” value was 1.4 fold; the “IC50, HEK293/SRE-Luc Blocking Activity” value came out at 3.3 nM.

B6: H4H13301P2 (antibody, human IgG4, V domains shown)
VH: QVQLVESGGGVVQPGTSLRLSCVASGFTFRNFGMHWVRQAPGKGLEWVANIWFDGSNENYVESIQGRFTISRDNSKNTLNLQMNSLRAEDSAVYYCVREGILGTTNPYDAFDVWGQGTMVTVSS
VL: not shown
notes: as for B2
In experiment [3], B6 gave a Kd of 1.62 nM, a T½ of 10.1 min, a dissociation rate constant (koff) of 0.00114 s⁻¹ and an association rate constant (kon) of 705000 M⁻¹ s⁻¹. In experiment [4], this molecule yielded a dissociation constant (Kd) of 82.2 nM, a T½ of 1.9 min, a koff of 0.00622 s⁻¹ and a kon of 75700 M⁻¹ s⁻¹.

B7: H4H13316P2 (antibody, human IgG4, V domains shown)
VH: EVQLVESGGGLVQPGGSLRLSCAASGFTFRSYVMSWFRQAPGKGLEWVSGMSGSGGSTSYADSVKGRFTISRDNSKNTLYLLMNSLRTEDTAVYYCAKENGANWNYGYYGMDVWGQGTTVTVSS
VL: not shown
With B7, in the experiment with human MET on cells [1], the “% Growth Inhibition, SNU5 cells” value worked out at 53% and the “IC50, SNU5 growth” value was 100 pM. For the same molecule, in the experiment with human MET on cells [2], the “% Inhibition, HEK293/SRE-Luc Blocking Activity (HGF, 1 h mAb pre-bind)” value worked out at 74%; the “EC50, Ligand (HGF)-Independent HEK293/SRE-Luc Activation” value stood at 47 pM; the “Fold Response, Ligand (HGF)-Independent HEK293/SRE-Luc Activation” value was 2.3 fold; the “IC50, HEK293/SRE-Luc Blocking Activity” value was 0.0078 nM.
